Data reported in paper PMC8087942, “Full closed loop open‐source algorithm performance comparison in pigs with diabetes” (Clinical and Translational Medicine, 2021).

Assay: Insulin lispro pharmacokinetics after subcutaneous Humalog in fasted pigs with diabetes (plasma lispro by ELISA)
Format: in vivo, pig
Conditions: pilot study, pigs with diabetes (n = 6), fasted 4–6 h, 4 U Humalog (100 U/ml) subcutaneous, plasma lispro by Insulin Lispro ELISA (Mercodia)
Experimental: Insulin pharmacokinetics are more rapid in pigs than in humans. ^19 , ^20 , ^29 Thus, it was necessary to construct models for insulin action to be used in both open‐source systems, which model insulin action as an exponential curve. In AndroidAPS, the parameters defining the curve are time‐to‐peak action (TPA) and total duration of insulin action (DIA). ^23 Loop uses time‐to‐onset, TPA, and DIA. ^15 The pig pharmacokinetic curves for use in open‐source algorithms were determined from data obtained during a pilot study in pigs (n = 6). This experimental pharmacokinetic curve is consistent with pharmacokinetics observed in the pigs used in this study. ^20 Pigs were kept on fast 4–6 h and then injected subcutaneously with a 4 U dose of Humalog (100 U/ml, Eli Lilly). Before injection, baseline blood was sampled from an intravenous catheter line and measured using a handheld glucose monitor (Bayer Contour Next). After injection, blood was sampled from the intravenous catheter line every 5 min for the first 60 min, then every 30 min up to 4 h. Blood was collected in K2EDTA plasma tubes (Greiner‐BioOne) for analysis with ELISA. Plasma lispro concentrations were quantified using an Insulin Lispro ELISA kit (Mercodia). Pharmacodynamics were approximated by blood glucose measurements in a stable fasting state after 2–3 h (Figure 2A). […]

Humalog: Commercial rapid-acting insulin lispro formulation (100 U/ml, Eli Lilly) injected subcutaneously in pigs
near complete exposure duration: ~2 h | time of peak serum concentrations (sampled every 5 min for 60 min, then every 30 min up to 4 h): 20 to 25 min
